Test results as given in paper PMC3171962.

Molecular target: hisPcrH (Pseudomonas aeruginosa T3S chaperone PcrH with an N-terminal polyHis tag) (P. aeruginosa PAO1) (UniProt Q9I325)
Experiment: SEC

| Substance | stoichiometry N |
| --- | --- |
| PopB (native, untagged P. aeruginosa T3S translocator) (from UniProt Q9I324 1-390) (natural protein) | 1 |
| PopD (native, untagged P. aeruginosa T3S translocator) (from UniProt Q9I323 1-295) (natural protein) | 1 |
